{"source": "patent US20170253873A1", "target": "phosphorylated Smad3 (pSmad3) (UniProt Q8BUN5)", "sequence (Q8BUN5 2-425 limits assumed)": "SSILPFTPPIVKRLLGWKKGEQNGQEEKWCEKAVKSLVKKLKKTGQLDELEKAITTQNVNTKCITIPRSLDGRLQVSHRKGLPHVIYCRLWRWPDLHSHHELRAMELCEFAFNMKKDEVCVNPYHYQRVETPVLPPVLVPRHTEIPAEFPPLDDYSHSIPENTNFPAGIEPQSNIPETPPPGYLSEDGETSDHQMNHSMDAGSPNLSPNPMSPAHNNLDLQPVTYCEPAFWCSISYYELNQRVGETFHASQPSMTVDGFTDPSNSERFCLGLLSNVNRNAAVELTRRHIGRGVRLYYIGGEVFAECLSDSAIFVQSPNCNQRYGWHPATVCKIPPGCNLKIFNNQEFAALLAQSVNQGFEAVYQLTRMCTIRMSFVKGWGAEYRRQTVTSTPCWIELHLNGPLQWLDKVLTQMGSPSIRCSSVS", "assay": "cell-based or functional assay"}
{"substance": "TAT-SH3 (TAT-SNX9(SH3) fusion polypeptide containing the full length SH3 domain, amino acids 1 to 62) (from UniProt Q9Y5X1 1-62) (designed binder)", "values": [{"measurement": "decrease in Smad3-dependent luciferase activity", "result": 70, "unit": "%"}]}
